B1: TRIM15 (parent)
chain: LSQMGAQSSGKILLCPLCQEEEQA
B2: ACSBG2 (parent)
chain: FAQADALKGTLVSTLKEVKPTVFI

Variants of: B1
Experiment: protein stability index of a GFP-peptide fusion (GPS, HEK-293T) (PSI 1-6); higher = more stable
Details: c terminus: a fixed tail appended
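Further: lentivirally expressed fusions sorted by FACS into six bins by GFP to DsRed ratio, PSI derived from sequencing read proportions per bin multiplied by bin number.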

Protein stability index, by site and new letter:
S9: G 2.64, F 2.36, H 3.71, E 2.93, R 2.99, W 2.96, A 3.07, D 3.7, L 3.4, C 3.86, Y 3.9, T 3.8, I 3, P 3.49, N 3, Q 2.65, K 3.78, M 2.57
Q3: M 2.96, N 3.55, Y 3.24, P 4.9, W 2.23, R 3.23, D 3.97, F 2.9, I 3.11, C 3.18, E 3.68, H 3.95, V 2.81, T 3.58, K 4.1
I12: Y 3.61, N 3.09, S 4.57, G 4.59, Q 4.27, H 3.51, M 3.79, K 4.04, L 4.04, V 4.5, E 3.56, D 4.21, A 4.19, F 3.52, T 3.42
L17: C 3.76, F 3.23, H 3.79, D 4.97, K 3.6, A 3.63, G 4.13
L13: C 4.67, G 4.65, D 4.5, M 4.74, R 4.71, F 4.09, T 4.51, E 4.24, A 4.87, Y 4.25, Q 4.1, N 4.63, K 4.65, P 3.97, H 5.52, S 4.5, I 4.08
G10: I 2.5, W 2.55, C 3.86, L 2.53, P 3.78, H 3.71, S 3.79, K 3.71, T 3.71, D 4.3, V 3.19, Q 3.58, R 3.22, M 3.83, E 3.89, F 2.74, Y 2.83, N 4.54
S8: F 2.76, V 3.51, K 3.4, Q 3.27, A 4.01, G 3.93, Y 3.49, C 2.89, T 3.55, R 3.89, D 3.98, I 3.14, W 2.65, E 3.82, P 3.73, N 3.82, H 3.82
K11: Y 2.64, P 3.6, W 2.76, N 4.26, C 2.79, E 3.11, R 3.03, V 2.04, G 2.27, L 1.76, F 2.44, T 3, H 2.72, D 2.81, A 3.14, S 3.79, M 3.12, I 3.03, Q 3.9
G5: T 3.7, Y 2.9, D 3.49, K 3.87, R 3.32, S 3.05, P 2.76, V 3.13, C 3.92, F 3.22, N 3.39, L 3.27, M 2.95, I 2.98, A 3.49, H 3.14, Q 3.92
S2: I 1.9, Y 3.63, A 2.6, T 3.71, P 4.26, F 2.96, Q 4.06, H 3.43, D 5.08, M 3.58, K 3.14, E 4, R 3.7
M4: Y 3.76, V 2.81, I 3.82, F 3.26, C 4.13, A 4.66, R 3.92, P 4.94, G 3.2, E 3.94, N 3.6, L 4.22, S 4.08
L1: F 2.73, H 3.94, G 3.96, M 3.52, I 3.38, A 3.1, W 4.43, S 3.55, V 3.97, N 3.75, Q 4.4, K 3.7, D 4.53, R 3.77, E 3.99, P 3.44, Y 2.65
A6: S 4.02, P 3.8, I 3.93, H 4.33, Y 3.29, W 3.94, C 3.37, V 3.81, D 3.75, N 3.12, T 3.27, R 3.17, E 3.56, M 3.3, K 4.68, G 3.47, F 2.6
Q7: K 3.47, Y 3.24, I 2.74, R 3.5, A 4.11, P 3.15, F 2.88, V 2.76, M 2.99, T 3.99, E 3.52, G 3.58, H 4.53, W 3.84, N 4.07, D 3.88, S 3.77, C 3.71, L 2.8
C15: S 4.98, K 4.65, N 5.22, Q 4.96, W 4.47, M 4.64, G 5.51, I 3.77, L 3.9, F 4.16, P 4.96, R 4.43, E 5.1, T 5.05, H 4.74, D 5.58, Y 4.39
P16: D 4.05, V 3.29, Q 4.22, T 3.91, W 2.9, N 4.1, L 3.37, H 3.8, F 4.36, K 4.19, A 2.92, Y 2.97, C 2.59, R 3.39, M 3.98
L14: M 3.98, A 5.21, C 3.94, R 4.15, S 4.72, N 3.56, D 4.72, T 4.66, Q 4.52, F 3.59, H 3.36, V 2.99, Y 4.23, W 2.93, I 3.91

Variants of: B2
Experiment: as above
Details: c terminus: a fixed tail appended

Protein stability index: each site, then its substitutions
K8: H 2.74, A 2.12, F 2.34, Q 2.39, Y 3, D 1.9
T14: V 2.05
K19: C 2.65, H 1.04, F 3.16, G 3.46, T 2.53, N 1.48, Y 2.36
S13: Q 1.39
K16: S 2.25, E 2.38
V18: C 3.06, R 1.89, W 3.71
P20: N 2.42, W 2.33, D 1.51
E17: K 1.45, D 1.48, I 1.86, H 3.49
I24: Q 2.23, K 2.41, P 2.27
L11: K 1.67, P 1.84
V22: K 2.45, N 1.98
F1: I 2.25
L7: S 1.67
T21: K 1.14
A2: N 1.45, M 1.79
F23: Y 2.32, G 2.36, S 2.16, C 2.52
Q3: F 3.71, L 2.44, A 1.86, V 3.21, Y 1.45, I 4.29, N 3.49
A6: C 1.28, W 3.31, H 1.61
V12: A 1.64, S 1.34
T10: G 1.46, N 1.61
L15: T 1.97, Q 2.02
A4: V 1.48, M 2.05, Y 1.52, R 2.19, E 2.77, L 1.69
